Laboratory results taken from the supplement of paper PMC11246515.
± gives the standard deviation of the averaged measurements.

Assay: total protein half-life in vivo (active degradation + dilution); higher = more stable protein
[1] = E. coli NCM3722 delta-clpP delta-lon delta-hslV, growth: N-lim chemostat, doubling time 6 h
[2] = E. coli NCM3722 delta-clpP, growth: N-lim chemostat, doubling time 6 h
[3] = E. coli NCM3722 delta-hslV, growth: N-lim chemostat, doubling time 6 h
[4] = E. coli NCM3722 delta-lon, growth: N-lim chemostat, doubling time 6 h
[5] = E. coli NCM3722 delta-smpB, growth: N-lim chemostat, doubling time 6 h
[6] = wild type E. coli NCM3722, growth: C-lim chemostat, doubling time 3 h
[7] = wild type E. coli NCM3722, growth: C-lim chemostat, doubling time 6 h
[8] = wild type E. coli NCM3722, growth: C-lim chemostat, doubling time 12 h
[9] = wild type E. coli NCM3722, growth: N-lim chemostat, doubling time 6 h
[10] = wild type E. coli NCM3722, growth: N-lim chemostat, doubling time 12 h
[11] = wild type E. coli NCM3722, growth: P-lim chemostat, doubling time 6 h
[12] = wild type E. coli NCM3722, growth: P-lim chemostat, doubling time 12 h

## MNRLPSSASALACSAHALNLIEKRTLDHEEMKALNREVIEYFKEHVNPGFLEYRKSVTAGGDYGAVEWQAGSLNTLVDTQGQEFIDCLGGFGIFNVGHRNPVVVSAVQNQLAKQPLHSQELLDPLRAMLAKTLAALTPGKLKYSFFCNSGTESVEAALKLAKAYQSPRGKFTFIATSGAFHGKSLGALSATAKSTFRKPFMPLLPGFRHVPFGNIEAMRTALNECKKTGDDVAAVILEPIQGEGGVILPPPGYLTAVRKLCDEFGALMILDEVQTGMGRTGKMFACEHENVQPDILCLAKALGGGVMPIGATIATEEVFSVLFDNPFLHTTTFGGNPLACAAALATINVLLEQNLPAQAEQKGDMLLDGFRQLAREYPDLVQEARGKGMLMAIEFVDNEIGYNFASEMFRQRVLVAGTLNNAKTIRIEPPLTLTIEQCELVIKAARKALAAMRVSVEEA
[1]
  total protein half-life in vivo: 4.74 ± 0.26 h
[2]
  total protein half-life in vivo: 3.09 ± 0.83 h
[3]
  total protein half-life in vivo: 0.385 ± 0.062 h
[4]
  total protein half-life in vivo: 0.49 ± 0.12 h
[5]
  total protein half-life in vivo: 0.289 ± 0.0059 h
[6]
  total protein half-life in vivo: 0.378 ± 0.04 h
[7]
  total protein half-life in vivo: 0.631 ± 0.033 h
[8]
  total protein half-life in vivo: 1.06 ± 0.45 h
[9]
  total protein half-life in vivo: 0.848 ± 0.61 h
[10]
  total protein half-life in vivo: 0.594 ± 0.085 h
[11]
  total protein half-life in vivo: 0.667 ± 0.37 h
[12]
  total protein half-life in vivo: 1.3 ± 0.8 h

## MTDYAISKKSKRSLWIPILVFITLAACASAGYSYWHSHQVAADDKAQQRVVPSPVFYALDTFTVNLGDADRVLYIGITLRLKDEATRSRLSEYLPEVRSRLLLLFSRQDAAVLATEEGKKNLIAEIKTTLSTPLVAGQPKQDVTDVLYTAFILR [P0ABX8]
[6]
  total protein half-life in vivo: 1.72 ± 0.4 h
[7]
  total protein half-life in vivo: 2.16 ± 0.27 h
[8]
  total protein half-life in vivo: 3 ± 0.22 h

## MENQPKLNSSKEVIAFLAERFPHCFSAEGEARPLKIGIFQDLVDRVAGEMNLSKTQLRSALRLYTSSWRYLYGVKPGATRVDLDGNPCGELDEQHVEHARKQLEEAKARVQAQRAEQQAKKREAAATAGEKEDAPRRERKPRPTTPRRKEGAERKPRAQKPVEKAPKTVKAPREEQHTPVSDISALTVGQALKVKAGQNAMDATVLEITKDGVRVQLNSGMSLIVRAEHLVF
[1]
  total protein half-life in vivo: 6.28 ± 0.52 h
[2]
  total protein half-life in vivo: 4.08 ± 0.88 h
[3]
  total protein half-life in vivo: 3.47 ± 0.071 h
[5]
  total protein half-life in vivo: 3.13 ± 0.045 h
[6]
  total protein half-life in vivo: 2.73 ± 0.21 h
[7]
  total protein half-life in vivo: 4.51 ± 0.22 h
[8]
  total protein half-life in vivo: 6.83 ± 0.53 h
[9]
  total protein half-life in vivo: 3.07 ± 0.052 h
[10]
  total protein half-life in vivo: 4.76 ± 0.052 h
[11]
  total protein half-life in vivo: 2.974 ± 0.024 h
[12]
  total protein half-life in vivo: 4.71 ± 0.23 h

## MSKIKGNVKWFNESKGFGFITPEDGSKDVFVHFSAIQTNGFKTLAEGQRVEFEITNGAKGPSAANVIAL [P0A972]
[1]
  total protein half-life in vivo: 3.54 ± 0.22 h
[2]
  total protein half-life in vivo: 2.27 ± 0.041 h
[3]
  total protein half-life in vivo: 1.7 ± 0.036 h
[4]
  total protein half-life in vivo: 3.44 ± 0.12 h
[5]
  total protein half-life in vivo: 1.96 ± 0.28 h
[6]
  total protein half-life in vivo: 2.156 ± 0.014 h
[7]
  total protein half-life in vivo: 2.37 ± 0.17 h
[8]
  total protein half-life in vivo: 2.62 ± 0.54 h
[9]
  total protein half-life in vivo: 1.8 ± 0.15 h
[10]
  total protein half-life in vivo: 2.23 ± 0.19 h
[11]
  total protein half-life in vivo: 1.945 ± 0.018 h
[12]
  total protein half-life in vivo: 3.16 ± 0.3 h

## MSDERYQQRQQRVKEKVDARVAQAQDERGIIIVFTGNGKGKTTAAFGTATRAVGHGKKVGVVQFIKGTWPNGERNLLEPHGVEFQVMATGFTWDTQNRESDTAACREVWQHAKRMLADSSLDMVLLDELTYMVAYDYLPLEEVVQALNERPHQQTVIITGRGCHRDILELADTVSELRPVKHAFDAGVKAQIGIDY [P0A9H5]
[1]
  total protein half-life in vivo: 4.8 ± 0.41 h
[2]
  total protein half-life in vivo: 4.52 ± 0.17 h
[3]
  total protein half-life in vivo: 4.27 ± 0.56 h
[4]
  total protein half-life in vivo: 5.29 ± 1.2 h
[5]
  total protein half-life in vivo: 4.17 ± 0.17 h
[6]
  total protein half-life in vivo: 3.41 ± 0.32 h
[7]
  total protein half-life in vivo: 5.05 ± 0.13 h
[8]
  total protein half-life in vivo: 9.56 ± 0.6 h
[9]
  total protein half-life in vivo: 4.235 ± 0.024 h
[10]
  total protein half-life in vivo: 6.63 ± 0.33 h
[11]
  total protein half-life in vivo: 5.852 ± 0.021 h
[12]
  total protein half-life in vivo: 11 ± 0.43 h

## MSTLGHQYDNSLVSNAFGFLRLPMNFQPYDSDADWVITGVPFDMATSGRAGGRHGPAAIRQVSTNLAWEHNRFPWNFDMRERLNVVDCGDLVYAFGDAREMSEKLQAHAEKLLAAGKRMLSFGGDHFVTLPLLRAHAKHFGKMALVHFDAHTDTYANGCEFDHGTMFYTAPKEGLIDPNHSVQIGIRTEFDKDNGFTVLDACQVNDRSVDDVIAQVKQIVGDMPVYLTFDIDCLDPAFAPGTGTPVIGGLTSDRAIKLVRGLKDLNIVGMDVVEVAPAYDQSEITALAAATLALEMLYIQAAKKGE
[1]
  total protein half-life in vivo: 6.58 ± 1 h
[2]
  total protein half-life in vivo: 5.85 ± 0.27 h
[3]
  total protein half-life in vivo: 5.33 ± 0.076 h
[4]
  total protein half-life in vivo: 7.38 ± 0.48 h
[5]
  total protein half-life in vivo: 5.82 ± 0.58 h
[6]
  total protein half-life in vivo: 2.9 ± 0.36 h
[7]
  total protein half-life in vivo: 6.205 ± 0.019 h
[8]
  total protein half-life in vivo: 11.8 ± 0.43 h
[9]
  total protein half-life in vivo: 6.72 ± 0.96 h
[10]
  total protein half-life in vivo: 11.9 h
[11]
  total protein half-life in vivo: 6.0955 ± 0.0043 h
[12]
  total protein half-life in vivo: 12.2 ± 1.3 h

## MEYKDPMHELLSSLEQIVFKDETQKITLTHRTTSCTEIEQLRKGTGLKIDDFARVLGVSVAMVKEWESRRVKPSSAELKLMRLIQANPALSKQLME [P0A9V5]
[2]
  total protein half-life in vivo: 0.508 ± 0.1 h
[4]
  total protein half-life in vivo: 0.337 h
[5]
  total protein half-life in vivo: 0.409 h
[9]
  total protein half-life in vivo: 0.277 h
